The values that follow come from US20020176853A1.

The assay has as its target mouse pro-IL-1β (mouse) (UniProt P10749). Put plainly: cell-based or functional assay.
UniProt P10749, sequence (P10749 whole entry): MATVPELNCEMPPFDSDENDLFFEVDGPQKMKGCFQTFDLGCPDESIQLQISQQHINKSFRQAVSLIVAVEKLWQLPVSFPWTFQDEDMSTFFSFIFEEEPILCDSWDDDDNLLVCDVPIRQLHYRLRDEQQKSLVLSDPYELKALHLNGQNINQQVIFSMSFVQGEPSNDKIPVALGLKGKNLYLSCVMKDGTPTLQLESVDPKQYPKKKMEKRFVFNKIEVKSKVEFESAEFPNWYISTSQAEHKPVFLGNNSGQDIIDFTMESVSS

For “pro-caspase-1 (full-length, wild-type) (from UniProt P29466 1-404) (enzyme)”, the secretion of mature IL-1β into the culture medium (ELISA), COS-7 cells fell in the range of 80 to 250 pg/mL.
